Measurements reported in US20180002740.

Tested on: VanR (phosphorylated) (Streptomyces coelicolor M600)
Test: cell_activity
Details: indirect: growth arrest about 18 h with 20 ug/ml vancomycin; 64 pM little effect

For “ATATCTATATGAAGCGACGTGGTCGATGAGCCGCAGCGTTTTCGCTGCGGCTCATCGACCACGTCGCTTCATATAGATATAGTTTTCT [vanH5 dumbbell decoy]”, the activity was 256 pM.
